From US20240101959A1, “USE OF IL-2R-BETA-GAMMA AGONIST PEPTIDES IN CELL MANUFACTURING” (MEDIKINE, INC., priority 2022, published 2024)
Positions of bridges follow the written chain, without caps; N, C: chain ends. No end group written: not given here.

T1: hu-IL-2Rβ subunit (human, UniProt P14784 27-240, limits assumed)
T1 construct: also called human interleukin-2 receptor subunit β; CD122
T1 sequence (looked up): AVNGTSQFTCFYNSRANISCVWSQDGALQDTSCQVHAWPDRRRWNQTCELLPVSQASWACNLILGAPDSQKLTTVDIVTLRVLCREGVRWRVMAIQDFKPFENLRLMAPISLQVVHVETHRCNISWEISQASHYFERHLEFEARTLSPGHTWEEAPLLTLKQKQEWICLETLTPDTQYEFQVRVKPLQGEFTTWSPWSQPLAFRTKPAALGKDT


The binders below were run against T1, hu-IL-2Rβ subunit (assay: phage ELISA competition assay).

IC50 [µM]	Binder
< 100	HQGFYSCRLARLGELCDLDTGW [SEQ ID NO 428]
< 100	FHPCWRALLGELCDLETALGPS [SEQ ID NO 443]
< 100	VDEFYPCSMAGLGELCDLERQN [SEQ ID NO 429]
< 100	KGSWQPCWFAKLGELCDLHPTS [SEQ ID NO 433]
< 100	WWPCWIADLGELCDLEGPPRGR [SEQ ID NO 453]
< 100	RLVYDCLFAQVGDLCEVIS [SEQ ID NO 438]
< 100	WRILWMQQCWRSHVVNQCAL (not fully specified (bridges); cysteine pairing not given here) [SEQ ID NO 439]
< 100	WLPCWLAPLGDLCDMDMSAVMN [SEQ ID NO 422]
< 100	LPCWIAQLGDLCDLEPEPSPE [SEQ ID NO 420]
< 100	RPPWYPCWMARLGEVCDMDIML [SEQ ID NO 431]
< 100	ARTWWPCWRAKLGELCDLVVPE [SEQ ID NO 427]
< 100	LQIRKLWACRIDLVGPFCLL [SEQ ID NO 444]
< 100	WFPCWMAKVGDLCDVDEHQDPS [SEQ ID NO 458]
< 100	FYPCWAAHLGDLCDLEYQEAGP [SEQ ID NO 421]
< 100	TGEWWPCWVAEVGELCDLERGP (not fully specified (bridges); cysteine pairing not given here) [SEQ ID NO 441]
< 100	MFRYYPCWIASIGELCDLEWGV [SEQ ID NO 460]
< 100	AQVWYPCWLAKVGELCDLDQWN [SEQ ID NO 456]
< 100	SYMHDCFMAQVGDLCDRFIS [SEQ ID NO 450]
< 100	CYMHDCFMAQVGDLCDRFIS [SEQ ID NO 497]
< 100	WGGRYWCWMAKLGDLCDLEDEW [SEQ ID NO 436]
< 100	WRPCWMAHLGDLCDLEMANENP [SEQ ID NO 423]
< 100	WWPCWVAKLGELCDLEGDASRV [SEQ ID NO 448]
< 100	RWDYWPCYIAQVGELCDLEVYE [SEQ ID NO 463]
< 100	EISNWFLDCMFADVGDLCDL [SEQ ID NO 455]

IC50 [µM]	Binder
< 100	VPRANAWHPCWMAQLGELCDLE [SEQ ID NO 106]
< 100	WTPCWIAQLGELCDLEGRHGTV [SEQ ID NO 419]
< 100	WWPCWIAQVGELCDLEEESRES [SEQ ID NO 451]
< 100	AWDWYPCSVAALGEICDLDIQD [SEQ ID NO 430]
< 100	QTKLEGWYPCWMAQLGELCDLD [SEQ ID NO 104]
< 100	PTLITWYDCLFAEVGELCDM [SEQ ID NO 454]
< 100	SQRWYPCWVAHLGELCDLEGVV [SEQ ID NO 432]
< 100	NRWWHPCWMARVGELCDLEPDA [SEQ ID NO 447]
< 100	TEMWYPCWMAYQGELCDLDMTY [SEQ ID NO 426]
< 100	KWAWNPCYIARLGELCDLVEPE [SEQ ID NO 452]
< 100	AEYSGRYDCYIAKVGELCDI [SEQ ID NO 445]
< 100	QTWYLPCWMAKLGELCDLGERD [SEQ ID NO 434]
< 100	ARTQGWYDCLFAQVGELCDL [SEQ ID NO 442]
< 100	MGDSSSWFPCWMAQLGELCDME [SEQ ID NO 459]
< 100	FGGKMDWYPCWIANLGELCDLK [SEQ ID NO 457]
< 100	SWRFLWQDCGRAHVGELCDL [SEQ ID NO 446]
< 100	WGRKEQWLPCWKAQLGELCDLE [SEQ ID NO 105]
< 100	GRQQKGWYPCWLAQLGELCDME [SEQ ID NO 107]
< 100	WYPCWIAQVGELCDLDEVSHGR [SEQ ID NO 440]
< 100	WYPCWLAQLGEVCDLDDGGGVF [SEQ ID NO 424]
< 100	ERRWYPCWLASVGELCDLDMGD [SEQ ID NO 461]
< 100	EPRWYPCWMAQMGELCDMEMSD [SEQ ID NO 435]
< 100	WWPCWIAQVGELCDLDGPGRPT (disulfide 4-13 (inferred)) [SEQ ID NO 437]
< 100	WYPCEFAQLGELCDLLPFPYPA [SEQ ID NO 449]
